Laboratory results: paper PMC6802120, “Concatenation of 14-3-3 with partner phosphoproteins as a tool to study their interaction” (Scientific Reports, 2019)
Values joined by “and” are separate entries in the source; they are usually repeats but may differ in a detail not shown here. Identical values can stand only once.

B1: pCH1 (phosphorylated peptidic chimera of 14-3-3σ(clu3)∆C with the HSPB6 phosphopeptide, residues 12-19) (other, human)
chain: GPHMERASLIQKAKLAEQAERYEDMAAFMKGAVEKGEELSCEERNLLSVAYKNVVGGQRAAWRVLSSIEQKSNEEGSAAAGPEVREYREKVETELQGVCDTVLGLLDSHLIKEAGDAESRVFYLKMKGDYYRYLAEVATGDDKKRIIDSARSAYQEAMDISKKEMPPTNPIRLGLALNFSVFHYEIANSPEEAISLAKTTFDEAMADLHTLSEDSYKDSTLIMQLLRDNLTLWTGSGSLRRASAPL
modifications: phosphoserine at Ser16 of the HSPB6 peptide (phosphorylated by PKA)
notes: three extra residues left at the N-terminus after 3C cleavage; human 14-3-3σ, C-terminally truncated, residues 1-231, with the 'clu3' replacements; linker; also called phosphorylated CH1; 14-3-3-phosphopeptide chimera; not shown: His6, N-terminal, cleaved
B2: HSPB6 ACD (α-crystallin domain, residues 72-149) (domain or fragment, human, UniProt O14558 72-149, looked up)
chain: GHFSVLLDVKHFSPEEIAVKVVGEHVEVHARHEERPDEHGFVAREFHRRYRLPPGVDPAAVTSALSPEGVLSIQAAPA
notes: human small heat shock protein HSPB6, α-crystallin domain, residues 72-149; also called ACD dimer; isolated ACD
B3: 14-3-3-pB6 chimera (PKA-phosphorylated chimera of human 14-3-3σ(clu3)∆C and HSPB6 residues 12-153) (other)
chain: GPHMERASLIQKAKLAEQAERYEDMAAFMKGAVEKGEELSCEERNLLSVAYKNVVGGQRAAWRVLSSIEQKSNEEGSAAAGPEVREYREKVETELQGVCDTVLGLLDSHLIKEAGDAESRVFYLKMKGDYYRYLAEVATGDDKKRIIDSARSAYQEAMDISKKEMPPTNPIRLGLALNFSVFHYEIANSPEEAISLAKTTFDEAMADLHTLSEDSYKDSTLIMQLLRDNLTLWTGSGSLRRASAPLPGLSAPGRLFDQRFGEGLLEAELAALCPTTLAPYYLRAPSVALPVAQVPTDPGHFSVLLDVKHFSPEEIAVKVVGEHVEVHARHEERPDEHGFVAREFHRRYRLPPGVDPAAVTSALSPEGVLSIQAAPASAQA
modifications: phosphoserine at Ser16 of the HSPB6 part (phosphorylated by PKA)
notes: three extra residues left at the N-terminus after 3C cleavage; human 14-3-3σ, C-terminally truncated (14-3-3σ∆C), residues 1-231, with the surface entropy reduction 'clu3' replacements; linker; the full chimera 'followed the same principles' as CH1; human small heat shock protein HSPB6, residues 12-153 (out of 160): Ser16 phosphopeptide region, rest of the NTD and the α-crystallin domain; Could …
B4: unphosphorylated 14-3-3-B6 chimera (human 14-3-3σ(clu3)∆C and HSPB6 residues 12-153) (other)
chain: B3 chain
notes: three extra residues left at the N-terminus after 3C cleavage; human 14-3-3σ, C-terminally truncated (14-3-3σ∆C), residues 1-231, with the 'clu3' replacements; linker; the full chimera 'followed the same principles' as CH1; human small heat shock protein HSPB6, residues 12-153 (out of 160); also called unphosphorylated chimera; unphosphorylated version; source: E. coli BL21(DE3) without PKA, …

Key:
[1] = biological target: 14-3-3σ∆C (C-terminally truncated human 14-3-3σ, residues 1-231) (human) (UniProt P31947); assay: SEC; fluorescence-assisted size-exclusion spectrochromatography, Superdex 200 Increase 5/150, SEC buffer; detection at 230 nm absorbance and Trp fluorescence (excitation 298 nm, emission 360 nm); proteins alone and mixed
[2] = biological target: the molecule itself; assay: as above
[3] = biological target: the molecule itself; assay: SEC; same column and buffer as a1; higher loaded protein concentrations (second peak appears); apparent MW from column calibration; dimer to tetramer
[4] = biological target: the molecule itself; assay: SEC; Superdex 200 Increase 5/150, 0.45 ml/min; 20 mM Tris-HCl pH 7.6, 150 mM NaCl, 0.5 mM EDTA, 1 mM DTT, 3% glycerol; low loaded protein concentration; apparent MW from column calibration

stoichiometry N [1]	Molecule	stoichiometry N [2]	stoichiometry N [3]	stoichiometry N [4]
2	14-3-3σ∆C (C-terminally truncated human 14-3-3σ, residues 1-231) (from UniProt P31947 1-231) (domain or fragment)	–	–	–
–	B1	4 and 2	–	–
–	B2	2	–	–
–	B3	–	4	2
–	B4	–	4	2
